The values below come from IntAct's records for PubMed 21858081.

In this test the target is tppc9_human TRAPPC9 (UniProt Q96Q05).
Chain of tppc9_human TRAPPC9 (Q96Q05 whole entry): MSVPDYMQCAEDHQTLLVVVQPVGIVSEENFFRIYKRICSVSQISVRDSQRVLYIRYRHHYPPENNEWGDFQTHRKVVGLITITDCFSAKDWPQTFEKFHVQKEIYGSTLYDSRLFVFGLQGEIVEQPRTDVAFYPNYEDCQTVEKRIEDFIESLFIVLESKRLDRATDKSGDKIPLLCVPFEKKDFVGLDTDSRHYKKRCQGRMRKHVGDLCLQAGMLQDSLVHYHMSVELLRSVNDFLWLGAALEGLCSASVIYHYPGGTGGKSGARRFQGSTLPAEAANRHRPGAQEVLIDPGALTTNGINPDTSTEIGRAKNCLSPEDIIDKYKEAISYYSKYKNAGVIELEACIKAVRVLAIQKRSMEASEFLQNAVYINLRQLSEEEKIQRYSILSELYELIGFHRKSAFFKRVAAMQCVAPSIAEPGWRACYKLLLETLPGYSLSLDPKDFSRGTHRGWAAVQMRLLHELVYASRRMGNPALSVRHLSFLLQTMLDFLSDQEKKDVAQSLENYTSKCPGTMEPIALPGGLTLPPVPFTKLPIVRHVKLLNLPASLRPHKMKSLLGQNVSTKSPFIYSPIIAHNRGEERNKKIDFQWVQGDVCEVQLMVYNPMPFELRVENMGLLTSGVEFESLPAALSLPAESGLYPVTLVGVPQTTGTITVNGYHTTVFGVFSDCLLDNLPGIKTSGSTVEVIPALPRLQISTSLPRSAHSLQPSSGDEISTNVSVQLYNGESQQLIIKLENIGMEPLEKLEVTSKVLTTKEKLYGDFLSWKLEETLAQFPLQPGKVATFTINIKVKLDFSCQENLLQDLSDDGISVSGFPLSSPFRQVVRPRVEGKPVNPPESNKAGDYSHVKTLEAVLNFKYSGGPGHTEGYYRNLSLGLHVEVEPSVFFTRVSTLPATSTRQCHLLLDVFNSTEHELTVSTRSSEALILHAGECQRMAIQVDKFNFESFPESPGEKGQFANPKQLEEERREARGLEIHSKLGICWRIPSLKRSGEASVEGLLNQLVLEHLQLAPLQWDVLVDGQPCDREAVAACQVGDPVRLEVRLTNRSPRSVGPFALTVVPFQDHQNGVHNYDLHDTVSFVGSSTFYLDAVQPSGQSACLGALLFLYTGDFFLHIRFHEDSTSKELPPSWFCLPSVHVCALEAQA

Take “Trafficking protein particle complex subunit 2 (Mus musculus) (from UniProt Q9CQP2) D47Y”: the “effect of a mutation on the interaction” value is “decreasing interaction strength”.
